Patent US20070264195A1 (H LUNDBECK A S, published 2007)

T1: purified human Sortilin extracellular domain (human, UniProt Q99523 78-755)
T1 construct: also called immobilized Sortilin; NTR-3
T1 sequence: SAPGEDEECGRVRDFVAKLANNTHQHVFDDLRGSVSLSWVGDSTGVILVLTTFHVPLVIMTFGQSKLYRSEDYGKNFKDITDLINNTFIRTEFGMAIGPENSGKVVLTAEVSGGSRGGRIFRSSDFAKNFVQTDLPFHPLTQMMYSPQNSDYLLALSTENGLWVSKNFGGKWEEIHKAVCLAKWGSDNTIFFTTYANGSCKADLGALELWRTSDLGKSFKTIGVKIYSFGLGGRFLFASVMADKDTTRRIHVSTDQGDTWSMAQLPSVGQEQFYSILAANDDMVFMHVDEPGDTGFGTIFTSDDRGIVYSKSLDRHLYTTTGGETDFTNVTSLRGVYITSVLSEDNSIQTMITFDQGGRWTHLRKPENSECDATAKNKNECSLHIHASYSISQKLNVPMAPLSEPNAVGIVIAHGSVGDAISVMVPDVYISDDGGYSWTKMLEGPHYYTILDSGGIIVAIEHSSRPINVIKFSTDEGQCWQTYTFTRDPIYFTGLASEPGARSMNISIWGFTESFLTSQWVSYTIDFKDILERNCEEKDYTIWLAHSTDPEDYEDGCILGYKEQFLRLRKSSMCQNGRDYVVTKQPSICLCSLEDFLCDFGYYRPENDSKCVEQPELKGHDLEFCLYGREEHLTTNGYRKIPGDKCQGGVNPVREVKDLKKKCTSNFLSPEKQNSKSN

B1: pro-domain of human BDNF fused to GST (glutathione S-transferase), produced in E. coli (other)
chain: APMKEANIRGQGGLAYPGVRTHGTLESVNGPKAGSGLTSLADTFEHVIEELLDEDQKVRPNEENNKDADLYTSRVMLSSQVPLEPPLLFLLEEYKNYLDAANMSMRVRR
notes: The residues 19-127 come from the description of the propart for BDNF; also called GST-pro-domain of proBDNF; pro-domain of proBDNF (a GST-fusion protein); not shown: glutathione S-transferase (GST) fusion partner
B2: recombinant human p75 neurotrophin receptor/Fc chimera (R&D Systems) (Fc fusion, UniProt P08138 29-250, looked up)
chain: KEACPTGLYTHSGECCKACNLGEGVAQPCGANQTVCEPCLDSVTFSDVVSATEPCKPCTECVGLQSMSAPCVEADDAVCRCAYGYYQDETTGRCEACRVCEAGSGLVFSCQDKQNTVCEECPDGTYSDEANHVDPCLPCTVCEDTERQLRECTRWADAECEEIPGRWITRSTPPEGSDSTAPSTQEPEAPPEQDLIASTVAGVVTTVMGSSQPVVTRGTTDN
notes: Bought reagent; also called p75-IgG-Fc chimeric protein; p75NTR; not shown: IgG Fc of the bought chimera
B3: human NGF-propeptide expressed in E. coli (peptide)
chain: EPHSESNVPAGHTIPQVHWTKLQHSLDTALRRARSAPAAAIAARVAGQTRNITVDPRLFKKRRLRSPRVLFSTQPPREAADTQDLDFEVGGAAPFNRTHRSKR
notes: The residues 19-121 come from the description of the propart for NGF; also called proNGF propeptide; propeptide of proNGF
B4: Mature recombinant human BDNF (Promega #G1491) (ligand)
chain: HSDPARRGELSVCDSISEWVTAADKKTAVDMSGGTVTVLEKVPVSKGQLKQYFYETKCNPMGYTKEGCRGIDKRHWNSQCRTTQSYVRALTMDSKKRIGWRFIRIDTSCVCTLTIKRGR
notes: also called mature BDNF
B5: Mature murine NGF (Austral Biologicals) (ligand, UniProt P01139 122-241, looked up)
chain: SSTHPVFHMGEFSVCDSVSVWVGDKTTATDIKGKEVTVLAEVNINNSVFRQYFFETKCRASNPVESGCRGIDSKHWNSYCTTTHTFVKALTTDEKQAAWRFIRIDTACVCVLSRKATRRG
notes: mature; also called nerve growth factor
B6: Rat proBDNF (produced in 293 cells, purified from conditioned medium) (ligand, UniProt P23363 19-249, looked up)
chain: APMKEANVHGQGNLAYPAVRTHGTLESVNGPRAGSRGLTTTSLADTFEHVIEELLDEDQKVRPNEENHKDADLYTSRVMLSSQVPLEPPLLFLLEEYKNYLDAANMSMRVRRHSDPARRGELSVCDSISEWVTAADKKTAVDMSGGTVTVLEKVPVSKGQLKQYFYETKCNPMGYTKEGCRGIDKRHWNSQCRTTQSYVRALTMDSKKRIGWRFIRIDTSCVCTLTIKRGR
notes: Pro-form of BDNF

Tests used:
[1] = molecular target: T1, purified human Sortilin extracellular …; assay: SPR (BIAcore), 5-500 nM GST-pro-domain over Sortilin extracellular domain immobilized at 94 fmol/mm2
From the text: (§1) FIG. 7: Characterization of proBDNF and BDNF binding to purified Sortilin as measured by surface plasmon resonance (BIAcore). Rat proBDNF was produced in 293 cells as described in Lee, R., Kermani, P., Teng, K. K. & Hempstead, B. L. Regulation of cell survival by secreted proneurotrophins. Science 294, 1945-1948 (2001). and purified from the conditioned medium. Mature recombinant human BDNF was from Promega (#G1491) and the pro-domain of human BDNF fused to GST (glutathione S-transferase) was produced in E. coli and purified by glutathione-sepharose affinity chromatography. Binding of 5-500 nM proBDNF (upper panel), pro-domain of proBDNF (a GST-fusion protein, middle panel) or BDNF (lower panel) was measured to 94 fmol/mm2 immobilized purified Sortilin extracellular domain. The experiment was carried out essentially as described for FIGS. 2-4.

[2] = molecular target: T2, Human recombinant proNGF (produced in E. coli) (human, UniProt P01138 19-241); assay: SPR (BIAcore), 25-500 nM proNGF over p75-IgG-Fc immobilized at 91.5 fmol/mm2
T2 construct: The end 241 is the end of the entry as printed
Experimental: (§2) FIG. 3: Characterization of proNGF binding to p75, TrkA, and Sortilin as measured by surface plasmon resonance analysis (BIAcore). Binding of 25-500 nM proNGF was measured to 91.5 fmol/mm² immobilized p75-IgG-Fc chimeric protein (upper panel), to 66 fmol/mm² immobilized TrkA-IgG-Fc (middle panel), and to 51 fmol/mm² purified Sortilin extracellular domain (lower panel).

[3] = molecular target: B2; assay: SPR (BIAcore), p75-IgG-Fc immobilized at 91.5 fmol/mm2
Experimental: (§3) FIG. 4: Characterization of binding of the proNGF propeptide to p75, TrkA, and Sortilin as measured by surface plasmon resonance analysis (BIAcore). Binding of 25-500 nM propeptide was measured to 91.5 fmol/mm² immobilized p75-IgG-Fc chimeric protein (upper panel), to 66 fmol/mm² immobilized TrkA-IgG-Fc (middle panel), and to 51 fmol/mm² purified Sortilin extracellular domain (lower panel). […] There was no detectable binding to p75 and TrkA.

[4] = molecular target: T1, purified human Sortilin extracellular …; assay: SPR (BIAcore), 25-500 nM propeptide over Sortilin extracellular domain immobilized at 51 fmol/mm2
Experimental: as §3

[5] = molecular target: T3, recombinant human TrkA/Fc chimera (R&D Systems) (human, UniProt P04629-2 34-407); assay: SPR (BIAcore), TrkA-IgG-Fc immobilized at 66 fmol/mm2
T3 construct: Bought reagent; also called TrkA-IgG-Fc; not shown: IgG Fc of the bought chimera
Experimental: as §3

[6] = molecular target: T1, purified human Sortilin extracellular …; assay: SPR (BIAcore), 5-500 nM BDNF over Sortilin extracellular domain immobilized at 94 fmol/mm2; Promega #G1491 preparation
From the text: as §1

[7] = molecular target: T1, purified human Sortilin extracellular …; assay: SPR (BIAcore), other preparations of mature BDNF over immobilized Sortilin; other preparations of mature BDNF
[8] = molecular target: T1, purified human Sortilin extracellular …; assay: SPR (BIAcore), 50-500 nM NGF over Sortilin extracellular domain immobilized at 51 fmol/mm2
Experimental: as §2, with “2:” for “3:”, “NGF” for “proNGF”, “50-500” for “25-500”

[9] = molecular target: B2; assay: SPR (BIAcore), 50-500 nM NGF over p75-IgG-Fc immobilized at 91.5 fmol/mm2
Experimental: as §2, with “2:” for “3:”, “NGF” for “proNGF”, “50-500” for “25-500”

[10] = molecular target: T3, recombinant human TrkA/Fc chimera (R&D …); assay: SPR (BIAcore), 50-500 nM NGF over TrkA-IgG-Fc immobilized at 66 fmol/mm2
Experimental: as §2, with “2:” for “3:”, “NGF” for “proNGF”, “50-500” for “25-500”

[11] = molecular target: T1, purified human Sortilin extracellular …; assay: SPR (BIAcore), 5-500 nM proBDNF over Sortilin extracellular domain immobilized at 94 fmol/mm2
From the text: as §1

T3 sequence (P04629 other isoform, or with tags, fused parts or gaps mutant): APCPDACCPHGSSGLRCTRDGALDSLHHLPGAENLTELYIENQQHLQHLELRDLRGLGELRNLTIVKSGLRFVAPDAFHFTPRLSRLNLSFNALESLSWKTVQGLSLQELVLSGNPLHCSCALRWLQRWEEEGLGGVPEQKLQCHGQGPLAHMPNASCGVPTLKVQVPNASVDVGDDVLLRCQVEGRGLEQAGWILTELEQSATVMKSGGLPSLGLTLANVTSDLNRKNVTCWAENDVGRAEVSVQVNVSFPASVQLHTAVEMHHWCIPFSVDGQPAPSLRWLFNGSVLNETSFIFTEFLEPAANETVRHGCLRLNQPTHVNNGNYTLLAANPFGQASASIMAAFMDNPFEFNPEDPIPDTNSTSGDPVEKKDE

Work on B1 yielded a Kd [1] of about 58 nM.

B2 was tested, and the Kd [2] was about 12 nM.

In the case of B3, the binding result [3] is reported as “no binding (tested: 25-500 nM propeptide)”, the Kd [4] is reported as about 87 nM and the binding result [5] is reported as “no binding (tested: 25-500 nM propeptide)”.

With B4 the Kd [6] was about 40 nM and the Kd [7] was 10 nM.

B5 showed a Kd [8] of about 87 nM, a Kd [9] of about 1 nM and a Kd [10] of about 2 nM.

For B6, the Kd [11] was about 3 nM.
